In patent publication US7691628, “Use of Rev-erb family of receptors in screening” (Merck Patent GmbH):

What was measured:
Conditions in all cases: tags: pSG5-hRev-erbα, TnT T7 rabbit reticulocyte lysate; label: 32P
Rev-erb alpha (NR1D1) [1] = target: T1, Rev-erb alpha (NR1D1) (Homo sapiens, UniProt P20393 P20393:1-614); assay: EMSA; two complexes, monomer and dimer; 10 mM Hepes, 80 mM KCl, polydIdC
T1 sequence: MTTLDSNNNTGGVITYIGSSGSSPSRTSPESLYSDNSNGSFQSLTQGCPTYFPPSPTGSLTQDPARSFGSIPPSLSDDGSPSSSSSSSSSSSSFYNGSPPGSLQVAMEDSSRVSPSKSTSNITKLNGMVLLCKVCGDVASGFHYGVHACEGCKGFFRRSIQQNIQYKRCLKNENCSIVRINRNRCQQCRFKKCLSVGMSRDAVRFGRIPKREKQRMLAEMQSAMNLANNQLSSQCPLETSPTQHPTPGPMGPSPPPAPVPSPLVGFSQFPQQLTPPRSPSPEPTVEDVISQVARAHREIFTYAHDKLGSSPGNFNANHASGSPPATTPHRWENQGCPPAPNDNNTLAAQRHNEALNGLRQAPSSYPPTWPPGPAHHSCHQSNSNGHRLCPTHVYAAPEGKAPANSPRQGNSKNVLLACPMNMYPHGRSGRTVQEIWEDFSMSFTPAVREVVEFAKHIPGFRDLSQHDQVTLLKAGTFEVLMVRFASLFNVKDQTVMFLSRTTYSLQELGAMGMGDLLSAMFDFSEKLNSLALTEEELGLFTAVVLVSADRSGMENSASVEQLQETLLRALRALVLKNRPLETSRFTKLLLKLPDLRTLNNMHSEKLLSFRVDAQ

Rev-erb alpha (NR1D1) [2] = target: T1, Rev-erb alpha (NR1D1); assay: EMSA; no significant retardation
Rev-erb alpha (NR1D1) [3] = target: T1, Rev-erb alpha (NR1D1); assay: EMSA; data not illustrated

B1: Rev-DR2 (dsDNA)
DNA 1: GATCCGGAAAAGTGTGTCACTGGGGCACGA
DNA 2: GATCTCGTGCCCCAGTGACACACTTTTCCG
B1: binds (Rev-erb alpha (NR1D1) [1]).

B2: C3P-DR2 (-104/-72) (dsDNA)
DNA 1: GATCCTCATCTCCACTGGTCAGCAGGTGACCTTTGC
DNA 2: GATCGGCAAAGGTCACCTGCTGACCAGTGGAGATGAG
B2: no binding (Rev-erb alpha (NR1D1) [2]).

B3: HCIII-TaTaKO (dsDNA)
DNA 1: GATCGATATAAAACAGGCAGGAACCCTC
DNA 2: GATCGAGGGTTCCTGCCTGTTTTATATC
B3: no binding (Rev-erb alpha (NR1D1) [3]).
